Measurements published in the Human Domainome abundance scans (Beltran et al. 2025).
± gives the uncertainty stated by the source.

B1: RAS guanyl-releasing protein 1, residues 539 to 593; numbered along this chain, O95267 (parent)
chain: GFPHNFQETTYLKPTFCDNCAGFLWGVIKQGYRCKDCGMNCHKQCKDLVVFECKK

Variants of: B1
Test: abundance fitness (aPCA) (normalised: wild type 0, dead -1); higher = more abundant; growth selection in yeast, the domain comes from the species named
Details: Homo sapiens

Question: Which abundance fitness does the source give for GFPHNFQETTYLKPTFCDNCAGFLWGVIKQGYRCKDCGMNCHKQCKHLVVFECKK here?
Answer: The abundance fitness was -0.32 ± 0.17.

Question: For GFYHNFQETTYLKPTFCDNCAGFLWGVIKQGYRCKDCGMNCHKQCKDLVVFECKK, which abundance fitness is on record?
Answer: Its abundance fitness is 0.394 ± 0.25.

Question: With GFHHNFQETTYLKPTFCDNCAGFLWGVIKQGYRCKDCGMNCHKQCKDLVVFECKK as the variant, how does the abundance fitness read?
Answer: The abundance fitness was 0.17 ± 0.058.

Question: With GFDHNFQETTYLKPTFCDNCAGFLWGVIKQGYRCKDCGMNCHKQCKDLVVFECKK as the variant, how does the abundance fitness read?
Answer: Its abundance fitness is 0.677 ± 0.23.

Question: Which abundance fitness does the source give for GFAHNFQETTYLKPTFCDNCAGFLWGVIKQGYRCKDCGMNCHKQCKDLVVFECKK here?
Answer: The abundance fitness was -0.047 ± 0.084.

Question: For GFSHNFQETTYLKPTFCDNCAGFLWGVIKQGYRCKDCGMNCHKQCKDLVVFECKK, which abundance fitness is on record?
Answer: Its abundance fitness is 0.099 ± 0.1.

Question: With GFPHNFQETTYLKPTFCDNCAGFMWGVIKQGYRCKDCGMNCHKQCKDLVVFECKK as the variant, how does the abundance fitness read?
Answer: The abundance fitness was 0.248 ± 0.11.

Question: Which abundance fitness does the source give for GFPHNFQETTYLKPTFCDNCAGFYWGVIKQGYRCKDCGMNCHKQCKDLVVFECKK here?
Answer: The abundance fitness was -0.623 ± 0.1.

Question: With GFPHNFQETTYLKPTFCDNCAGFKWGVIKQGYRCKDCGMNCHKQCKDLVVFECKK as the variant, how does the abundance fitness read?
Answer: The abundance fitness was -0.333 ± 0.1.

Question: Which abundance fitness does the source give for GFPHNFQETTYLKPTFCDNCAGFCWGVIKQGYRCKDCGMNCHKQCKDLVVFECKK here?
Answer: The abundance fitness was -0.118 ± 0.11.

Question: For GFPHNFQETTYLKPTFCDNCAGFRWGVIKQGYRCKDCGMNCHKQCKDLVVFECKK, which abundance fitness is on record?
Answer: The abundance fitness was -0.375 ± 0.049.

Question: Which abundance fitness does the source give for GFPHNFQETTYLKPTFCDNCAVFLWGVIKQGYRCKDCGMNCHKQCKDLVVFECKK here?
Answer: The abundance fitness was -0.482 ± 0.12.

Question: For GFPHNFQETTYLKPTFCDNCAGFLWGVIKQGYRCKDCGMNCHKQCKDLVWFECKK, which abundance fitness is on record?
Answer: The abundance fitness was -0.121 ± 0.071.

Question: With GFPHNFQETTYLKPTFCDNCAGFLWGVIKQGYRCKDCGMNCHKQCKDLVSFECKK as the variant, how does the abundance fitness read?
Answer: Its abundance fitness is -0.03 ± 0.057.

Question: Which abundance fitness does the source give for GFPHNFQETTYLKPTFCDNCAGFLWGVIKQGYRCKDCGMNCHKQCKDLVDFECKK here?
Answer: The abundance fitness was -0.208 ± 0.13.

Question: With GFPHNFQETTYLKPTFCDNCAGFLWGVIKQGYRCGDCGMNCHKQCKDLVVFECKK as the variant, how does the abundance fitness read?
Answer: The abundance fitness was -0.118 ± 0.088.

Question: For GFPHNFQETTYLKPTFCDNCAGFLWGVIKQGYRCKDCFMNCHKQCKDLVVFECKK, which abundance fitness is on record?
Answer: Its abundance fitness is -0.071 ± 0.1.

Question: For GFPHNFQETTYLKPTFCDNCAGFLWGVIKQGYRCKDCTMNCHKQCKDLVVFECKK, which abundance fitness is on record?
Answer: Its abundance fitness is -0.282 ± 0.17.

Question: Which abundance fitness does the source give for GFPHNFQETTYLKPTFCDNCAGFLWGVIKQGYRCKDCLMNCHKQCKDLVVFECKK here?
Answer: Its abundance fitness is -0.075 ± 0.051.

Question: For GFPHNFQETTYLKPTFCPNCAGFLWGVIKQGYRCKDCGMNCHKQCKDLVVFECKK, which abundance fitness is on record?
Answer: The abundance fitness was -0.732 ± 0.12.

Question: For GFPHNFQETTYLKPTFCVNCAGFLWGVIKQGYRCKDCGMNCHKQCKDLVVFECKK, which abundance fitness is on record?
Answer: The abundance fitness was -0.132 ± 0.088.

Question: Which abundance fitness does the source give for GFPHNFQETTYLKPTFCINCAGFLWGVIKQGYRCKDCGMNCHKQCKDLVVFECKK here?
Answer: The abundance fitness was -0.142 ± 0.09.

Question: Which abundance fitness does the source give for GFPHNFGETTYLKPTFCDNCAGFLWGVIKQGYRCKDCGMNCHKQCKDLVVFECKK here?
Answer: Its abundance fitness is -0.116 ± 0.068.

Question: For GFPHNFKETTYLKPTFCDNCAGFLWGVIKQGYRCKDCGMNCHKQCKDLVVFECKK, which abundance fitness is on record?
Answer: The abundance fitness was -0.484 ± 0.15.

Question: With GFPHNFHETTYLKPTFCDNCAGFLWGVIKQGYRCKDCGMNCHKQCKDLVVFECKK as the variant, how does the abundance fitness read?
Answer: The abundance fitness was -0.096 ± 0.14.

Question: Which abundance fitness does the source give for GFPHNFQETTYLKPTFCDNCAGFLWGVIKQGYRCKDCGMNCVKQCKDLVVFECKK here?
Answer: Its abundance fitness is -1.09 ± 0.35.

Question: Which abundance fitness does the source give for GFPHNFQETTYLKPTFCDNCAGFLWGVIKQGYRCKDCGMNCPKQCKDLVVFECKK here?
Answer: The abundance fitness was -0.859 ± 0.16.

Question: Which abundance fitness does the source give for GFPHNFQETTYEKPTFCDNCAGFLWGVIKQGYRCKDCGMNCHKQCKDLVVFECKK here?
Answer: Its abundance fitness is -0.19 ± 0.097.

Question: Which abundance fitness does the source give for GFPHNFQETTYLKPTFCDNCAGFLWGVIKQGYACKDCGMNCHKQCKDLVVFECKK here?
Answer: The abundance fitness was -0.167 ± 0.093.

Question: With GFPHNFQETTYLKPTFCDNCAGFLWKVIKQGYRCKDCGMNCHKQCKDLVVFECKK as the variant, how does the abundance fitness read?
Answer: Its abundance fitness is -0.442 ± 0.16.

Question: With GFPHNFQETTYLKPTFCDECAGFLWGVIKQGYRCKDCGMNCHKQCKDLVVFECKK as the variant, how does the abundance fitness read?
Answer: The abundance fitness was 0.11 ± 0.1.

Question: For GFPHNFQETTYLKPTFCDFCAGFLWGVIKQGYRCKDCGMNCHKQCKDLVVFECKK, which abundance fitness is on record?
Answer: Its abundance fitness is 0.068 ± 0.094.

Question: For GFPVNFQETTYLKPTFCDNCAGFLWGVIKQGYRCKDCGMNCHKQCKDLVVFECKK, which abundance fitness is on record?
Answer: Its abundance fitness is -0.947 ± 0.078.

Question: With GFPGNFQETTYLKPTFCDNCAGFLWGVIKQGYRCKDCGMNCHKQCKDLVVFECKK as the variant, how does the abundance fitness read?
Answer: Its abundance fitness is -0.847 ± 0.082.

Question: For GFPHNFQETTYLKPTFCDNDAGFLWGVIKQGYRCKDCGMNCHKQCKDLVVFECKK, which abundance fitness is on record?
Answer: Its abundance fitness is -0.541 ± 0.096.

Question: For GFPHNFQETTYLKPTFCDNMAGFLWGVIKQGYRCKDCGMNCHKQCKDLVVFECKK, which abundance fitness is on record?
Answer: The abundance fitness was -1.05 ± 0.17.

Question: For GFPHNFQETTYLKPTFCDNVAGFLWGVIKQGYRCKDCGMNCHKQCKDLVVFECKK, which abundance fitness is on record?
Answer: Its abundance fitness is -1.13 ± 0.19.

Question: With GFPHNFQETTYLKPTFCDNCAGFLFGVIKQGYRCKDCGMNCHKQCKDLVVFECKK as the variant, how does the abundance fitness read?
Answer: Its abundance fitness is -0.143 ± 0.15.

Question: Which abundance fitness does the source give for GFPHNFQETTYLKPTFCDNCAGFLQGVIKQGYRCKDCGMNCHKQCKDLVVFECKK here?
Answer: The abundance fitness was -0.128 ± 0.074.

Question: Which abundance fitness does the source give for GFPHNFQETTYLKPTFCDNCAGFLWGVIKQGYRCKDCGMNCHKQCKDMVVFECKK here?
Answer: The abundance fitness was 0.055 ± 0.1.

Question: For GFPHNFQETTYLKPTFCDNCAGFLWGVIKQGYRCKDCGMNCHKQCKDWVVFECKK, which abundance fitness is on record?
Answer: Its abundance fitness is -0.052 ± 0.053.

Question: With GFPHNFQETTYLKPTFCDNCAGFLWGVIKQGYRCKDCGMNCHKQCPDLVVFECKK as the variant, how does the abundance fitness read?
Answer: The abundance fitness was -0.147 ± 0.084.

Question: Which abundance fitness does the source give for GFPHNFQETTYLKPTFCDNCAGFLWGVIKQGYRCKDCGMNCHKQCLDLVVFECKK here?
Answer: Its abundance fitness is -0.007 ± 0.077.

Question: For GFPHNVQETTYLKPTFCDNCAGFLWGVIKQGYRCKDCGMNCHKQCKDLVVFECKK, which abundance fitness is on record?
Answer: Its abundance fitness is -0.06 ± 0.044.

Question: With GFPHNFQETTYLKPGFCDNCAGFLWGVIKQGYRCKDCGMNCHKQCKDLVVFECKK as the variant, how does the abundance fitness read?
Answer: Its abundance fitness is -0.607 ± 0.088.

Question: For GFPHNFQETTYLKPTFCDNCAGFLWGVIKQNYRCKDCGMNCHKQCKDLVVFECKK, which abundance fitness is on record?
Answer: Its abundance fitness is -0.717 ± 0.3.

Question: Which abundance fitness does the source give for GFPHNFQETTYLKPTFCDNCAGFLWGVIKQEYRCKDCGMNCHKQCKDLVVFECKK here?
Answer: Its abundance fitness is -0.414 ± 0.11.

Question: Which abundance fitness does the source give for GFPHNFQETTYLKPTFCDNCAGFLWGVIKQIYRCKDCGMNCHKQCKDLVVFECKK here?
Answer: The abundance fitness was -0.685 ± 0.22.
